The record followed here is PMC7104937.

This test has as its target soluble ectodomain protein of human CD26 (hCD26) (human), P27487. Description: crystal structure. The settings on record: remark: other sources report otherwise.

B1: soluble ectodomain protein of human CD26 (hCD26), P27487 29-766 (receptor)
chain: NKGTDDATADSRKTYTLTDYLKNTYRLKLYSLRWISDHEYLYKQENNILVFNAEYGNSSVFLENSTFDEFGHSINDYSISPDGQFILLEYNYVKQWRHSYTASYDIYDLNKRQLITEERIPNNTQWVTWSPVGHKLAYVWNNDIYVKIEPNLPSYRITWTGKEDIIYNGITDWVYEEEVFSAYSALWWSPNGTFLAYAQFNDTEVPLIEYSFYSDESLQYPKTVRVPYPKAGAVNPTVKFFVVNTDSLSSVTNATSIQITAPASMLIGDHYLCDVTWATQERISLQWLRRIQNYSVMDICDYDESSGRWNCLVARQHIEMSTTGWVGRFRPSEPHFTLDGNSFYKIISNEEGYRHICYFQIDKKDCTFITKGTWEVIGIEALTSDYLYYISNEYKGMPGGRNLYKIQLSDYTKVTCLSCELNPERCQYYSVSFSKEAKYYQLRCSGPGLPLYTLHSSVNDKGLRVLEDNSALDKMLQNVQMPSKKLDFIILNETKFWYQMILPPHFDKSKKYPLLLDVYAGPCSQKADTVFRLNWATYLASTENIIVASFDGRGSGYQGDKIMHAINRRLGTFEVEDQIEAARQFSKMGFVDNKRIAIWGWSYGGYVTSMVLGSGSGVFKCGIAVAPVSRWEYYDSVYTERYMGLPTPEDNLDHYRNSTVMSRAENFKQVEYLLIHGTADDNVHFQQSAQISKALVDVGVDFQAMWYTDEDHGIASSTAHQHIYTHMSHFIKQCFSLP
In turn, B1 showed a stoichiometry N of 2.
